PMC12131814

How the values were obtained:
[1] = target: superfolder green fluorescent protein (sfGFP); experiment: AUC
[2] = target: superfolder green fluorescent protein (sfGFP); experiment: ITC
[3] = target: superfolder green fluorescent protein (sfGFP); experiment: MST
[4] = target: superfolder green fluorescent protein (sfGFP); experiment: MST; remark: listed apart in the source

Kd [1]: 1.72 nM
stoichiometry N [1]: 1
Kd [2]: 1 nM
dH [2]: -11.1 kcal/mol
Kd [3]: 1.53 nM
Kd [4]: 1.52 nM
B1: anti-GFP nanobody (GFP-enhancer) (VHH)
VHH: QVQLVESGGALVQPGGSLRLSCAASGFPVNRYSMRWYRQAPGKEREWVAGMSSAGDRSSYEDSVKGRFTISRDDARNTVYLQMNSLKPEDTAVYYCNVNVGFEYWGQGTQVTVSS
